Results on 30 sequences are retold here after the nanobody polyreactivity screen of Harvey et al. (2022).

The nature of this data set: yeast display, Sf9 membrane polyspecificity reagent, FACS + sequencing; frameworks hold sequencing errors. In outline: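 Galactose-induced (36–48 hours) yeast carrying a synthetic nanobody display library were exposed to 10% biotinylated, detergent-solubilized Sf9 membrane reagent at 4 °C for 1 hour. FACS followed streptavidin microbead enrichment, using low and high (top ~1%) gates for expression (anti-HA) and reagent binding (streptavidin). Colony PCR, MiSeq 2 × 250 sequencing and CDR-length filtering followed. Labels for polyreactivity reflect the gate of origin.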
With “QVQLVESVGGLVQGGGSLRLSCAASGINFYRYALGWYRQAPGKERELVAAINRSGDSTYYADSVKGRFTISRDNAKNTVYLQMNSLKPEDTAVYSCAAQHSIYRNPGLDDYWGQGNQVTVSS”, the “polyreactivity (PSR sort gate)” value is given as “high polyreactivity”.

Regarding “QVQLVESVGRLVQAGGSLRLSCDASGSIFYYAMGWYRQAPGKERELVAAITWRGGRTYYADSVKGRFTITRDNEKNTVYLQLNSLKPEDTAVYNCNAVAPCKYNHWGQGTQVTVSS”, the “polyreactivity (PSR sort gate)” value is listed as “high polyreactivity”. “QVQLVESVGVLVQAGGSLRLSCAASGITFSSYAMGWYRQAPGKERELVAAITRTGGRTYYADSVKGRFTISRDNAKNTVYLQMNRLKPEDTAVYYCAAYYIAYYYWGQGTQVTVSS”: the “polyreactivity (PSR sort gate)” value is recorded as “high polyreactivity”.

As to “QVQLVESVRGFDQAGVSLRLSCAASGSIFYHNAKGLYRQATVTERELVGAITSDGSTYYADSVKGRFTISRDNGKNTVYLLMNSLKPEDTAVFYCAAEYYGHRYDYLGQGTQVTVSS”, the “polyreactivity (PSR sort gate)” value is “low polyreactivity”. For the sequence “QVQLVESVVGLVQAGGSLLLSCDASGGIFLRYAMGSYRQAPGKERELVARISNRGGSTYYADSVKGRFTISRDYAKNTVYLQMNSLKPEDTAVYYCAADRWSSSRGDYWGQGTQVTVSS”, the “polyreactivity (PSR sort gate)” value is on record as “low polyreactivity”. As for “QVQLVESVVGLVQAGGSLRLSCAASGSTFYTYAMGWYRQAPGKERELVAAISYRGGSTYYADSVKGRFTISRDNAKNTVDLQMNSLKPEDTAVFYCNVDGVVVGNKRGGYDYWGQGTQVTVSS”, the “polyreactivity (PSR sort gate)” value was “low polyreactivity”. Under “QVQLVESVVGLVQAGGSLRLSCASSGSIFYYYTMGWYRHAPGKERELVAAITRGGSTNYADSVKGRFTISRDNAKNTGYLQMNSLKPEDTAVYYCAVAWYRGWYRYDYWGQGTQVTVSS” stands “high polyreactivity”. Under “QVQLVESVVGLVQAGGSLRLSSAASGGTFDLYAMGWYRQAPGKERELVAAISRRGSSTYYADSVKGRFTISRDNAKNTVYLQMTSLKPEDTAVYFCNNRYYWHGINEYWGQGTQVTVSS” stands “high polyreactivity”. For the sequence “QVQLVESVVGLVQEGGSLRLSCAASGRIFAWYAMGWYRQAPGKERELVAAISDSGGSTYYADSVKGRFTISRDNAKNTVYLQMNSLKPEDTAVYYCAAQYVIRITFYATYWDDYWGQGTQVTVSS”, the “polyreactivity (PSR sort gate)” value is on record as “low polyreactivity”. Under “QVQLVESWAGVVQAGGSLRLSCAASGSIFRNAMGWYRQAPGKERELVAGIRWSYGSTNYADSVKGRFTISRDNAKNSVYLQMNSLKPEDTAVYYCAKGAYYARRMYFWGQGTQVTVSS” stands “low polyreactivity”; under “QVQLVESWGGFVQAGGSLRLSCAASGSIFKGYVMGWYRQAPGKERELVAAISGSGGSTYYADSVKGRFTISRDNAKNTVYIQMNSLKPEDTAVYYCAARYRYWGGSGFKGFDYWGQGTQVTVSS”, “high polyreactivity”; under “QVQLVESWGGIVQAGGSLRLSCAASGSTFHDYAMGWYRQAPGKERELVAAISRRASRTYYADSVKGRFTISRDNAKNTDFLQMNSLKPEDTAVYDCNTDQSQKTVVYDYWGQGTQVTVSS”, “high polyreactivity”. The result for “QVQLVESWGGLFQAGGSLRLSCAASGRIWWNAMGWYIQSPGKERELVAAIRWSGGITRYADSVKGRFTFSGDNAKNTVYLQMKSLKPEDTAVYYCAARRNTVTGYQYYYWGQGTQVSVSS” reads “high polyreactivity”; that for “QVQLVESWGGLVKAGGSLRLSCAASGRTIRGYTMGWNRQAPGKQRELVAAISQSGGRTHYADSVKGRFTISRDNAKNTVYLEMKSLKPEDTAVYYCAARGQRERSYPLYDYWGQGTQVTVSS”, “high polyreactivity”. Under “QVQLVESWGGLVLAGGRLRLSCAASGSTFPYNAMGWYRQAPGKERELVAVISQRGGSTYYADSLKGRFTISRDNAKNSVYLQMKSLKPEDTAVYYCAAEYIVTYGYDYWGQGTQVTVSS” stands “high polyreactivity”; under “QVQLVESWGGLVQAGGSLPLRCAASGRTFVQYAMGWYRQAPGKERELVAAISLSGGRTYYADSVKGRFTISRDNAKNTVYLQMNSLKPEDTAVYYFSARDSSRYYWGQGTQVTVSS”, “high polyreactivity”; under “QVQLVESWGGLVQAGGSLRLSCAASGFNPNAMGWYRQAPGKERELVAAISSNGGSTYYADSVKGRFTISRDNAKKTVYLQMNSLKPEDTAVYYCNRDQWRHTPAEGYYWGQGTQVTVSS”, “low polyreactivity”. Turning to “QVQLVESWGGLVQAGGSLRLSCAASGFTFYGYAMGWYRQAPGKERELVAAISRRSSSTYYADSVKGRFTISRDNAKNTVYLQMNSLKPEDTAVYYCNTVFQLSGYAAGVDYWGQGTQVTVSS”, the “polyreactivity (PSR sort gate)” value is recorded as “high polyreactivity”.

Take “QVQLVESWGGLVQAGGSLRLSCAASGGIFWNYAMGWYRQAPGKERELVATISSGGSTKYADSVKGRFTISRDNAKNTVYLQMNSLKPEDTAVYYCNKVFPNLYIYVVRGLIEMDYWGQGTQVTVSS”: the “polyreactivity (PSR sort gate)” value was “low polyreactivity”. The result for “QVQLVESWGGLVQAGGSLRLSCAASGNIFYFYAMGWYRQAPGKERELVAAITSVGSTKYADSVKGRFTISRDNAKNTVYLEMNCLKPEDTAVYYCAARRWRSYYYWGQGTHVTVSS” reads “high polyreactivity”; that for “QVQLVESWGGLVQAGGSLRLSCAASGNTFIEYAMGWYRQAPGKERELVAAINWNGGSTYYADSVKGRFTISRDNAKNTVYFQMNSLTPEDTAVYYCAADTFRLYGALAEYDYWGQGTQVTVSS”, “low polyreactivity”. The result for “QVQLVESWGGLVQAGGSLRLSCAASGRIFWKYTMGWYRQAPGKERELVAAIRSGGGSTDYADSVKGRFTISRDNAKNSVYLQMNRLIPEDTAGYYCAAEPSQRYPLSGYVYWGQGTQVTVSS” reads “low polyreactivity”. Under “QVQLVESWGGLVQAGGSLRLSCAASGRIFYDYAMGWYRQAPGKERELVAAISKGGGSTYYADSVKGRFTISRDNAKKTVYLQMNSLKAEDTAVYFCAASTSHTTDTRYDYWGQGTQVTVSS” stands “low polyreactivity”; under “QVQLVESWGGLVQAGGSLRLSCAASGRTFFYYAMGWYRQAPWKERELVAAISKSGGRTYYADSVKGRFTISRDNAKNTVYLQMNSLKPEDTAVYYCATLAQWYDRELDYWGQGTQVTVSS”, “high polyreactivity”; under “QVQLVESWGGLVQAGGSLRLSCAASGRTFYSYVMGWYRKAPGKEREMVAAITSGGSTYYADSVKGRFTISRDNAKNTVYLQMNSLKPEDTAVYYCAADGDYASYDTFWYWAPEYDYWGQGTQVTVSS”, “low polyreactivity”.

For the sequence “QVQLVESWGGLVQAGGSLRLSCAASGSIFGENAMGWYREAPRKEMELVAAITSGGSTDYADSVKGRFTISRDNAKNTVYLQMNSPKVEDTAVYYCAASGRVGPGYCYDSWGQGTQVTVSS”, the “polyreactivity (PSR sort gate)” value is reported as “low polyreactivity”. For “QVQLVESWGGLVQAGGSLRLSCAASGSIFPWYAMGWYREAPGKERELVAAISKSGAGTYYADSVKGRFTISRDNAKNTVYLQMNSLKPEDTAVYYCNAVYRKTSYGYWGQGTQVTVSS”, the “polyreactivity (PSR sort gate)” value was “high polyreactivity”. Under “QVQLVESWGGLVQAGGSLRLSCAASGSTFRRNAMGCYRQAPGKERELVAAITRSGDSTYYADSVKGRFTISRDYAKNTVYLQMNSLKPEDTAVYYCAADSSRYRYRNQGYYWGQGTQVTVSS” stands “high polyreactivity”; under “QVQLVESWGGLVQAGGSLRLSCAASGSTFSLYTMGWYRQAPGKERELVATIDSGGSTNYADSVKGRFTISRDNAKNTVYLQMNSLKPEDTAVYYCVDYYNGYTHNYNYWGQGTQVTVSS”, “low polyreactivity”. Under “QVQLVESWGGLVQAGGSLRLSCAASGSTIAYYVLGWYRQAPRKERELVAAINFSGDSTYYADSVKGRFTNSRDNAKNTVNLQMNSLKPEDTAVYYCAVDWGEYIDTSVKRDISYYWGQGTQVTVSS” stands “low polyreactivity”.
